Experimental findings from paper PMC8406295, “Highly Basic Clusters in the Herpes Simplex Virus 1 Nuclear Egress Complex Drive Membrane Budding by Inducing Lipid Ordering” (mBio, 2021) are described below.

* marks the point of attachment. MTSL = spin label, CC1(C)C=C(CS*)C(C)(C)N1[O]

To fix the notation:
T1: UL34^(174–194) peptide, unlabelled (herpes simplex virus 1 (HSV-1), UniProt P10218 174-194, N-terminally acetylated; C-terminally amidated)
T1 construct: also called UL34 MPR peptide; source: synthetic peptide, bought: Peptide 2.0
T1 peptide: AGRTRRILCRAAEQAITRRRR

T2: UL34^(174–194) peptide, spin-labelled at C182 (herpes simplex virus 1 (HSV-1), UniProt P10218 174-194, N-terminally acetylated; C-terminally amidated; MTSL spin label on the native cysteine C182)
T2 construct: also called UL34 MPR peptide; C182_(34); source: synthetic peptide, bought: Peptide 2.0
T2 peptide: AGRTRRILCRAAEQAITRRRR

B1: UL31^(22–42) peptide (peptide)
peptide: Ac-RRSRSSAAGGTLGVVRRASRK-NH2
notes: source: synthetic peptide, bought: Peptide 2.0
B2: UL31^(41–50) peptide (peptide)
peptide: Ac-RKSLPPHARK-NH2
notes: also called UL31 mini-MPR peptide; source: synthetic peptide, bought: Peptide 2.0
B3: UL31^(41–C51) peptide, spin-labelled (peptide)
peptide: Ac-RKSLPPHARKC(MTSL)-NH2
SMILES: CC(=O)N[C@@H](CCCNC(=N)N)C(=O)N[C@@H](CCCCN)C(=O)N[C@@H](CO)C(=O)N[C@@H](CC(C)C)C(=O)N1CCC[C@H]1C(=O)N1CCC[C@H]1C(=O)N[C@@H](Cc1c[nH]cn1)C(=O)N[C@@H](C)C(=O)N[C@@H](CCCNC(=N)N)C(=O)N[C@@H](CCCCN)C(=O)N[C@@H](CSSCC1=CC(C)(C)N([O])C1(C)C)C(N)=O
notes: also called mini-MPR with C-terminal cysteine; C51_(31); source: synthetic peptide, bought: Peptide 2.0
B4: UL31^(22–C43) peptide, spin-labelled (peptide)
peptide: Ac-RRSRSSAAGGTLGVVRRASRKC(MTSL)-NH2
notes: also called C43_(31); source: synthetic peptide, bought: Peptide 2.0
B5: UL31^(C21–42) peptide, spin-labelled (peptide)
peptide: Ac-C(MTSL)RRSRSSAAGGTLGVVRRASRK-NH2
notes: also called C21_(31); source: synthetic peptide, bought: Peptide 2.0
B6: UL31^(C40–50) peptide, spin-labelled (peptide)
peptide: Ac-C(MTSL)RKSLPPHARK-NH2
SMILES: CC(=O)N[C@@H](CSSCC1=CC(C)(C)N([O])C1(C)C)C(=O)N[C@@H](CCCNC(=N)N)C(=O)N[C@@H](CCCCN)C(=O)N[C@@H](CO)C(=O)N[C@@H](CC(C)C)C(=O)N1CCC[C@H]1C(=O)N1CCC[C@H]1C(=O)N[C@@H](Cc1c[nH]cn1)C(=O)N[C@@H](C)C(=O)N[C@@H](CCCNC(=N)N)C(=O)N[C@@H](CCCCN)C(N)=O
notes: also called mini-MPR with N-terminal cysteine; C40_(31); source: synthetic peptide, bought: Peptide 2.0

The first test deals with T1, UL34^(174–194) peptide, unlabelled. Nature of the test: cross-linking; SM(PEG)6 at 50-fold molar excess, 30 min at room temperature in PBS, with 1 mM POPC/POPS/POPA 3:1:1 SUVs; 50 μM peptide, or 25 μM each in mixtures; 16% Tris-tricine SDS-PAGE, Coomassie. Conditions: both partners purified.
Take B1: the binding result is listed as “binds”. On the same count and under the same terms, under B2 stands “binds”.

Another test deals with T2, UL34^(174–194) peptide, spin-labelled …. Nature of the test: DEER (double electron-electron resonance) spectroscopy; MTSL spin-labelled peptides, approximately 50 μM peptide or 1:1 peptide mixture with POPC/POPS/POPA 3:1:1 SUVs, 1:200 P/L ratio, incubated 10 min at 25°C, frozen, measured at 60 K. To be noted: both partners purified.
For B3, the binding result is “binds”. For the molecule B4, the binding result is on record as “binds”. With B5, the binding result was “binds”. Take B6: the binding result is listed as “binds”.
